# Measured values: PMC11053944, “FRET Assays for the Identification of C. albicans HSP90-Sba1 and Human HSP90α-p23 Binding Inhibitors” (Pharmaceuticals, 2024)
# Entries after “also recorded” stand apart in the source; their conditions may differ.
# B1: Sba1: unlabeled C. albicans HSP90 co-chaperone Sba1 (UniProtKB A0A1D8PQ94), His6-tagged; yeast Sba1 in cited values (protein)
# chain: MSSTTTQTPTVLWAQRSSEDDAAKNIIYLTIQISDPIDLKIDLKSDHLIIDSKSNDSVYSSIDYHLQIDFFKEIDPDQSKINTENGSHIFMILRKKDQQEEYWPRLTKEKLKYHYIKTDFDKWVDEDEQDEVKDDPNDFGGPGGPGGAMDFSQMLSGMGGLGGAGGSGGPGGVDLSALASQLGQAGGAGGAAGLDGEEGEEGEAEAKEAQEESNTTATEKE
# modifications: left off: His6, N-terminal, state not stated
# notes: unlabeled C. albicans HSP90 co-chaperone Sba1 (UniProtKB A0A1D8PQ94), His6-tagged; yeast Sba1 in cited values
# B2: Aha1: C. albicans co-chaperone Aha1, activator of HSP90 ATPase (A0A1D8PU72); yeast Aha1 in cited values (protein)
# chain: MVVNNPNNWHWVDKNCLPWSVDYFKDKLINLKVTDGTNNVHISEVSSVEGDVDVSQRKGKVISLFDIKIVLTFKGNTAKDDNVSGSITIPELTYDSEVDGLQFDISIYNETAENSGITDLIKKQLIPQLRTALMKFGPDLIEINSKDIQLSQDKVTSTYTKANQSSTIAATADHPKSESKPVEKKTETHSTSNIARKVVSEKDSSTVPKYNTTTLHLEPSFNTSAEQIYLTLLDEARIGAWTRSAPVIEKFPPKEGSEFKFFGGSVSGKFLKLVPNEQIVELWRLDDWKAGHFAQLDMKLVQSSGETKLVVKFSGIPIGEEERVKNNFEERYIRSIKITFGFGAVL
# modifications: left off: His6, N-terminal, state not stated
# notes: yeast Aha1 in cited values
# What was measured:
# [1] = target: T1, C. albicans HSP90–Sba1 binding (Candida albicans, UniProt P46598); assay: FRET inhibitor screening assay, C. albicans HSP90-Sba1 binding; conditions: 10 or 100 µM (Sba1 20 µM), triplicates, 3 mM ATP, 1% DMSO, 15 min 30 °C
# T1 construct: made in house; host or cells: E. coli BL21(DE3)
# Source text: We used the Z′ factor (Z′) to optimize the FRET assays for screening purposes. Z′ represents a simple statistical parameter for the quality assessment and optimization of HTS assays and screening assays in general. It is a measure that determines the degree of signal separation between binding and non-binding data sets. Calculation of the Z′ factor is based on the standard deviation of the individual data sets as well as their general signal separation. Values ≥ 0.5 can be classified as excellent for screening purposes. […] Consequently, the fluorescence intensity of the donor decreases (FLDD). […] To obtain an informative Z′ value, we calculated it based on at least three independent experiments amounting to 144 samples for both binding and non-binding control data sets (Figure 4B,E). […] We defined the ‘hit threshold’ as a decrease in readout signal of more than 3 standard deviations (SDs) from the mean signal of the binding control. […]
# FRET experiments were carried out in 384-well microtiter plates (Art. No. 3766 Corning, NY, USA, or Art. No. 781906, Greiner Bio-One GmbH, Frickenhausen, Germany) containing a final volume of 20 µL and measured with a microplate reader Infinite M200Pro (Tecan, Männedorf, Switzerland). […] Experiments for the determination of the equilibrium dissociation constants were performed with a filter-based microplate reader Infinite F200Pro (Tecan, Männedorf, Switzerland). […]
# S. cerevisiae HSP90 = conditions: cited from earlier work
# [2] = target: T2, C. albicans HSP90-mNeonGreen–Sba1-mScarlet-I binding (Candida albicans, UniProt P46598, E36A); conditions: 20 µM added; 1 µM HSP90-mNeonGreen, 2 µM Sba1-mScarlet-I, 5 mM ATP
# T2 construct: made in house; host or cells: E. coli BL21(DE3)
# Method: In this investigation, 1 µM HSP90-mNeonGreen was incubated with 2 µM Sba1-mScarlet-I in reaction buffer containing 5 mM ATP either alone (UC) or with the addition of 20 µM Sba1. As a negative control, samples containing 20 µM bovine serum albumin (BSA) were used.
# FRET experiments were carried out in 384-well microtiter plates (Art. No. 3766 Corning, NY, USA, or Art. No. 781906, Greiner Bio-One GmbH, Frickenhausen, Germany) containing a final volume of 20 µL and measured with a microplate reader Infinite M200Pro (Tecan, Männedorf, Switzerland). The fluorescence was measured in three channels: excitation (ex.): 488 nm/emission (em.): 525 nm (mNeonGreen fluorescence), ex.: 561 nm/em.: 610 nm (mScarlet-I fluorescence) and the FRET channel ex.: 488 nm/em.: 610 nm. The excitation and emission bandwidths were set to 9 and 20 nm, respectively. Experiments for the determination of the equilibrium dissociation constants were performed with a filter-based microplate reader Infinite F200Pro (Tecan, Männedorf, Switzerland). The fluorescence was measured in three channels using the following filters: ex.: 485 ± 20 nm/em.: 535 ± 20 nm (mNeonGreen channel), ex.: 535 ± 20 nm/em.: 612 ± 10 nm (mScarlet-I channel) and the FRET channel ex.: 485 ± 20 nm/em.: 612 ± 10 nm. […]
# C. albicans HSP90 = target: T3, C. albicans HSP90 (Candida albicans, UniProt P46598); assay: ADP-Glo assay, HSP90 ATPase activity; type: biochemical; conditions: HSP90 2.5 µM, 1 mM ATP, 1 h 30 °C; Aha1 alone: up to, at 8-fold molar excess; co-incubation: 20 µM each
# T3 construct: made in house; host or cells: E. coli BL21(DE3)
# T3 sequence (P46598 whole entry): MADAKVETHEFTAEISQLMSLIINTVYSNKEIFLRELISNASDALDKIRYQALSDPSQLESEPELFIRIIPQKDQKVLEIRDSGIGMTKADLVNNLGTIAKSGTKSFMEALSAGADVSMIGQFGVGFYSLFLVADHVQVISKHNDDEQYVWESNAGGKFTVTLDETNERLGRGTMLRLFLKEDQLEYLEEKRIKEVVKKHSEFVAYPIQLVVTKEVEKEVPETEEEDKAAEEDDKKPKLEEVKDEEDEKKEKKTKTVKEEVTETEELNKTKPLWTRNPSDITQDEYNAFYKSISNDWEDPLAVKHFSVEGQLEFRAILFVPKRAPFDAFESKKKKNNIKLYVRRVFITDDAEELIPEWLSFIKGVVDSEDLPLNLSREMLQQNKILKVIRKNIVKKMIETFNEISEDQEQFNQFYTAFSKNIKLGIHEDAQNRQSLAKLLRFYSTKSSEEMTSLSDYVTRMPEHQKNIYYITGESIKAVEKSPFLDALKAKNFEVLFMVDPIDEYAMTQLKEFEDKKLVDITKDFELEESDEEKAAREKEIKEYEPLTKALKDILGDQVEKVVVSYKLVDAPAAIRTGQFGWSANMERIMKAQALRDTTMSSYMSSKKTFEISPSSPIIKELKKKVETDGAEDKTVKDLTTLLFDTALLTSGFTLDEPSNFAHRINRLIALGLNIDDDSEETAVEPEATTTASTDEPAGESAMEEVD
# Method: The ADP-Glo™ assay (Promega GmbH, Waldorf, Germany) was performed according to the manufacturer’s protocol. […] The reaction mixture was incubated for 1 h at 30 °C. After 5 min re-tempering to room temperature, 5 µL of ADP-Glo reagent was added to the samples to terminate the kinase reaction and deplete the remaining ATP for 40 min at room temperature. Afterward, 10 µL Kinase Detection Reagent was added to convert the generated ADP back to ATP. In that way, synthesized ATP was measured in a luciferase/luciferin reaction. Luminescence was detected with an Infinite M200 Pro (Tecan, Männedorf, Switzerland) in a 384-well microtiter plate (Art. No. 781075, Greiner Bio-One GmbH, Frickenhausen, Germany) after 40 min for 100 µM ATP samples, or 60 min for 1 mM ATP samples. The luminescence intensity of the sample containing only HSP90 was set to 100%, and the luminescence intensities of the other samples were related to it.
# T1 sequence (P46598 whole entry): as above
# T2 sequence (P46598 whole entry, stated change not applied): as the sequence (P46598 whole entry) above
Molecule,hit identification (EmFRET/FLDD decrease of more than 3 SDs from binding control mean) [1],"ATPase activity, % of initial value in the absence of Sba1 (S. cerevisiae HSP90; decrease to up)",effect on FRET emission (EmFRET) versus untreated control [2],increase in HSP90 ATPase activity (C. albicans HSP90),"stimulation in ATPase activity (S. cerevisiae HSP90; up to, 5–10-fold molar excess Aha1/HSP90, ref 32 (Wolmarans et al.))"
B1,identified as disrupting; also recorded: identified as hits,50%,significant reduction in FRET emission,,
B2,,,,7 fold,~ 20 fold
